Data as given in patent US20260184794A1, “ANTIBODIES AGAINST INTEGRIN ALPHA 11 BETA 1 AND USES THEREOF” (Momenta Pharmaceuticals, Inc., priority 2022, published 2026).
Read-outs that look alike come from different tables or passages of the source.

B1: 79E3E3: anti-α11β1 monoclonal antibody from rat hybridoma; VH SEQ ID NO: 8, VL SEQ ID NO: 20 (antibody, V domains shown)
VH: QIQLVQSGPEVKKPGESVKISCKASGYTFTDYAMNWVKQAPGNGLKWMGWINTQTGKPTYADDFKQRFVFSLETSARTTYLQINNLNIEDTATYFCTRLGTGNTKGFAYWGQGTLVTVSS
VL: DILINQSPASLTVSAGERVTMSCKSSQSLLYSENNQDYLAWYQQKPGQFPKLLIYGASNRHTGVPDRFTGSGSGTDFTLTISSVQAEDLADYYCEQTYRYPFTFGSGTKLEIK
B2: 16E10: anti-α11β1 monoclonal antibody from B cell sorting; VH SEQ ID NO: 57, VL SEQ ID NO: 62 (antibody, V domains shown)
VH: QSLEESGGDLVKPGASLTLTCRVSGFSFSSSYYMCWVRQAPGKGLEWIACIGTTRGSTYYATWAKGRFTISKISSTTVTLQMTSLTDADTATYFCARDATGYRINTIGLYFNLWGPGTLVTVSS
VL: ELTQTPSSVEAAVGGTPTIKCQASQTIYSYLSWYQQKPGQPPKLLIYEASKLASGVPSRFSGSGSGTDYTLTISDLECADAATYYCQSYHGTASTEYNTFGGGTEVVVK
B3: 1994-01-C7 (#9): anti-α11β1 monoclonal antibody from human phage display; VH SEQ ID NO: 32, VL SEQ ID NO: 37 (antibody, V domains shown)
VH: QVQLVQSGAEVKKPGASVKVSCKASGYTFTSYGISWVRQAPGQGLEWMGWISAYNGNTNYAQKLQGRVTMTTDTSTSTAYMELRSLRSDDTAAYYCARVTGITGTTIDPWGQGTMVTVSS
VL: DIQMTQSPSSLSASVGDRVTITCRASQSISSYLNWYQQKPGKAPKLLIYDASSLESGVPSRFSGSGSGTEFTLTISSLQPDDFAVYYCQQYNNWPQTFGQGTKVEIK

What was measured:
mouse α11β1 = mouse α11β1 (Mus musculus, UniProt P61622); assay: Cross-reactivity with mouse α11β1 (SPR); format: binding; settings: for Cross reacts with mouse α11β1: yes/no
Sequence of mouse α11β1 (P61622 23-1141 limits assumed): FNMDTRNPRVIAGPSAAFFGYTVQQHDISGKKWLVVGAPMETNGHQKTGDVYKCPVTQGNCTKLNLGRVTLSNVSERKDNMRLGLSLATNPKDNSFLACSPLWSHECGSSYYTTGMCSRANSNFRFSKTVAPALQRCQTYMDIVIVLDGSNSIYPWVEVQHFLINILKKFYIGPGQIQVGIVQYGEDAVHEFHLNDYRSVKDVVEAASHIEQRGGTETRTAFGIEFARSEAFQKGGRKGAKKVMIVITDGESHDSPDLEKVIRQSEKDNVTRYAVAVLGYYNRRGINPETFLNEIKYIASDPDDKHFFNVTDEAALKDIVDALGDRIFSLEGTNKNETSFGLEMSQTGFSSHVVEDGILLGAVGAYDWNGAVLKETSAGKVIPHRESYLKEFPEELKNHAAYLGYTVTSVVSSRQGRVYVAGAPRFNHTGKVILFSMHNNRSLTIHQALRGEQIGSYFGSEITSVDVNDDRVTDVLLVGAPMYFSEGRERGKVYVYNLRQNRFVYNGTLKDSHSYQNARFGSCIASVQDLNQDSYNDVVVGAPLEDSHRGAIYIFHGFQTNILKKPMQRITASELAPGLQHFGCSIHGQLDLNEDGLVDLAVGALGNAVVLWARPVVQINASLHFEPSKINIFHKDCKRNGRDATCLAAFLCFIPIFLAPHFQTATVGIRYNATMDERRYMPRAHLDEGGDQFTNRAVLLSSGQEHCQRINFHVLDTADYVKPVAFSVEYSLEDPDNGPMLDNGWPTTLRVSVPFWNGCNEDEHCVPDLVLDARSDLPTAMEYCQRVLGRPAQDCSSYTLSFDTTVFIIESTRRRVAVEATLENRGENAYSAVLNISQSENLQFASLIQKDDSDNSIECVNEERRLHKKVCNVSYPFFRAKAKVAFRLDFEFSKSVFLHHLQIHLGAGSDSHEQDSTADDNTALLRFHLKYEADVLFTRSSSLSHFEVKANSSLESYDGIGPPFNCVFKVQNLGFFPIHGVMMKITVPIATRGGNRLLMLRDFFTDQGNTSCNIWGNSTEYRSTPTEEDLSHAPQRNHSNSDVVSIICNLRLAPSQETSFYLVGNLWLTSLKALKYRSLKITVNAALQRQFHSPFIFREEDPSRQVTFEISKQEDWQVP
Sequence of mouse α11β1 (P09055 21-728 partner limits assumed): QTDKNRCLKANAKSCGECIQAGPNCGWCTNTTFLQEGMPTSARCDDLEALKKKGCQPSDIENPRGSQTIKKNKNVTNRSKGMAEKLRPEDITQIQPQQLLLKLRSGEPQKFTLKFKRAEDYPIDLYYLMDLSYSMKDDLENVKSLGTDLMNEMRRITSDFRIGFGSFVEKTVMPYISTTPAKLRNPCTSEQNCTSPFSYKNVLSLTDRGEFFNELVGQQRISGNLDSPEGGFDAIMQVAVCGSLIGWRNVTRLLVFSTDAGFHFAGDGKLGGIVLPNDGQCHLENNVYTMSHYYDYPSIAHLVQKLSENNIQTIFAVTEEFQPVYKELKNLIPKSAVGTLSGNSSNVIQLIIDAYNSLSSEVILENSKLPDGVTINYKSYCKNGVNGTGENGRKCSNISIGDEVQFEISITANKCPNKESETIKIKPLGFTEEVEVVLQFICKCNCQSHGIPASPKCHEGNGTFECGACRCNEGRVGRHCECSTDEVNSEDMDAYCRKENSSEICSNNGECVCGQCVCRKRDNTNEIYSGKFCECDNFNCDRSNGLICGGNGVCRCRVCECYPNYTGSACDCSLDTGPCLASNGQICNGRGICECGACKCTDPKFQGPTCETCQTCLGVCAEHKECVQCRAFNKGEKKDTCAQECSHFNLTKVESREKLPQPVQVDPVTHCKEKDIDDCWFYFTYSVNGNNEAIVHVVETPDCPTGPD

CHO-hu α11 [1] = target: T1, CHO-hu α11 (Homo sapiens, UniProt Q9UKX5); assay: FACS antibody binding to CHO-K1 cells expressing human α11
T1 construct: expressed in transfected cells; host or cells: CHO-K1
T1 sequence (Q9UKX5 23-1188): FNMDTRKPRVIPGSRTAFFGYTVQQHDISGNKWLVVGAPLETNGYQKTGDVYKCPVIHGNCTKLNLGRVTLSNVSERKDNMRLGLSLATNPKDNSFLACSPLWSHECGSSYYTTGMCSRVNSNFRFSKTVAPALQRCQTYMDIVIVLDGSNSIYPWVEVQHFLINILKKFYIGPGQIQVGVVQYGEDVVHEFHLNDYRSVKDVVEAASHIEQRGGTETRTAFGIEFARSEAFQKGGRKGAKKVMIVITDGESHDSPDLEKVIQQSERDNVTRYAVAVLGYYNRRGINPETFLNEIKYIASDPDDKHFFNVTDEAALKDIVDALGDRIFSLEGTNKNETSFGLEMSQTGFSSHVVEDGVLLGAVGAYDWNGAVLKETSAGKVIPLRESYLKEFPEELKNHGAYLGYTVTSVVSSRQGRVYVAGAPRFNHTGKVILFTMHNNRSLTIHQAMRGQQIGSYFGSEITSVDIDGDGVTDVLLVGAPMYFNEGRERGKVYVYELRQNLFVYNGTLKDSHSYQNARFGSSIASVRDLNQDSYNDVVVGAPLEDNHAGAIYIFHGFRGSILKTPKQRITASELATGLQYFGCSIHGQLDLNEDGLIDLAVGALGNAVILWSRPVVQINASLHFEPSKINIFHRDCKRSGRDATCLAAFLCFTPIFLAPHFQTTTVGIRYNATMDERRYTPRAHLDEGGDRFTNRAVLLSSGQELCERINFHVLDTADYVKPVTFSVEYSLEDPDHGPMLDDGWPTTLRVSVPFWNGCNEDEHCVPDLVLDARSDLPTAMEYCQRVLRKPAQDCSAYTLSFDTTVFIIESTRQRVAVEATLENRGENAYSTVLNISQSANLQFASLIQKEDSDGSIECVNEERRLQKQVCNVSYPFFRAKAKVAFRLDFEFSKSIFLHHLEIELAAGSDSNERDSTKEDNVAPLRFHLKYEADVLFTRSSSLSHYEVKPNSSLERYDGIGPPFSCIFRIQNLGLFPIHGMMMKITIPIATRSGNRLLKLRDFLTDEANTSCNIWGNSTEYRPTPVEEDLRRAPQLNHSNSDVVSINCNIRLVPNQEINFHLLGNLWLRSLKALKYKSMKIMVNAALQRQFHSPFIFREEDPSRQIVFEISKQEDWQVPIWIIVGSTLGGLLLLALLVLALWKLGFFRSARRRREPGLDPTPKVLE
T1 sequence (P05556 21-798 partner): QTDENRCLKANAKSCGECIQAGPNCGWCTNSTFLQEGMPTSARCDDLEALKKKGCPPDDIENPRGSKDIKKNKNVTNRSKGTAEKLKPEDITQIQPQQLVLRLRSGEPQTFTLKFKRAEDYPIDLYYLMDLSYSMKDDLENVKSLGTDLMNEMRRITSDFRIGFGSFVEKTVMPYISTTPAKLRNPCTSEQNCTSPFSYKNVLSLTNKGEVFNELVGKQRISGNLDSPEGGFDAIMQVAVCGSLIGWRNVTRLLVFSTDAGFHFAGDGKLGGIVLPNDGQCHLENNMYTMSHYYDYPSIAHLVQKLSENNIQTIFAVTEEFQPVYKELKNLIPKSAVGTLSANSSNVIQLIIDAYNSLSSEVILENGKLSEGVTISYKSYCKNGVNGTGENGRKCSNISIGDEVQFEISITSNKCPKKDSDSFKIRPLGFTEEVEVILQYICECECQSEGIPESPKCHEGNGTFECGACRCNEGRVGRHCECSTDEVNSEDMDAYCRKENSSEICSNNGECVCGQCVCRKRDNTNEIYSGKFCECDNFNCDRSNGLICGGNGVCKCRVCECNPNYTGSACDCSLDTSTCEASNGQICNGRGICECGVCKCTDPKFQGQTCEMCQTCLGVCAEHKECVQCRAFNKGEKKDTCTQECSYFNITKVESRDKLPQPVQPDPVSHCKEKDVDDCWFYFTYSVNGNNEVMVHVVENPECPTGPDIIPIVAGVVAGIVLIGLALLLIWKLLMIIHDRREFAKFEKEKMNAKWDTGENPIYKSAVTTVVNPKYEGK
Experimental: 200,000 cells (wild-type CHO-K1 cells or CHO-K1 cells expressing human α11) were incubated with each antibody at desired concentrations in FACS buffer for 30 min at 4° C. Then, the cells were washed with FACS buffer and incubated with secondary antibody at 1:100 dilution for 30 minutes at 4° C. Cells were then washed and fixed with 1% PF A in PBS for 20 minutes at room temperature; washed again and read on a cytometer in FACS buffer.

[2] = system: CHO cell lines expressing α11; assay: Collagen gel contraction assay; format: cell-based
Experimental: 24-well plates were blocked with 2% BSA in PBS overnight at 37° C. The following day, the plates were washed 3 times with PBS before being used in the assay. Human CHO cell lines expressing all were harvested and resuspended at 1.25×10^6 in ExpiCHO Expression Medium (Gibco™ Cat #A2910002). The collagen gel solution was prepared by diluting 3 mg/mL stock collagen type I (Gibco™ Collagen I Rat Protein, Tail Cat #A1048301) to I mg/mL in the media containing the CHO cells. Sodium hydroxide was added to the solution to neutralize the pH and 400 μL of the collagen solution was added to each well of the 24-well plates. For the wells where the antibodies were included in the collagen gel solution, CHO cells were prepared at 2.5×10^6 and the antibodies were prepared at 2× final concentration in ExpiCHO media. The cells and antibodies were then combined 1:1 before the addition of the stock collagen type I. The gels were allowed to polymerize for 60 minutes at 37° C. Antibodies were added to the ExpiCHO media, which was then layered on top of the polymerized gel ([…]). The gels were incubated for 6 days at 37° C. before gel contraction was quantified. Images of each well were analyzed using Image J and gel contraction was determined as a percentage of the initial gel area.

[3] = system: Precision cut kidney slices (PCKS); assay: Human fibrotic precision cut kidney slices (PCKS) treated with TGF-β1 and PDGFββ, secreted mediators; format: cell-based; settings: increasing antibody doses, dose dependent; for inhibition of secreted Col1a1: FIG. 2; for inhibition of secreted IL-11: FIG. 3
Experimental: Precision cut kidney slices (PCKS) were treated with TGF-β1 and PDGFββ in the presence or absence of Alk5i and increasing doses of anti-α11β1 antibodies. The antibodies provided an inhibition of secreted pro-fibrotic and pro-inflammatory mediators Col1a1 (1994-01-C7 FIG. 2A, 79E3E3 FIG. 2B, and 16E10 FIG. 2C) and IL-11 (1994-01-C7 FIG. 3A, 79E3E3 FIG. 3B, and 16E10 FIG. 3C) in a dose dependent manner.

CHO-hu α11 [4] = target: T1, CHO-hu α11; assay: Cell adhesion inhibition on type I collagen (xCelligence); format: cell-based
Experimental: 0.6×10^6 cells/mL were incubated with each antibody at a range of concentrations for 20 minutes at 37° C. E-Plate VIEW 96 PET plate coated with 100 ng/ml type I collagen or PBS overnight at room temperature was blocked in 3% BSA for 1 hour at room temperature. After washing the plate with PBS, cell and antibody mixture was added to the wells and the plate was places into an xCelligence machine. Cell adhesion was recorded over 6 hours. The time point of maximum cell adhesion was used for comparison relative to control.

Pulmonary Myofibroblast = assay: FACS antibody binding to pulmonary myofibroblasts (HPF/MF); set-up: species or system human; settings: Table 11, 1994-01-C7 variants, FIG. 4B
Experimental: Human Pulmonary Fibroblasts (ScienCell) were cultured in complete Fibroblast Growth Medium (ScienCell) until 80% confluent in T-150 flasks. Cells were washed and harvested using Accutase. Cells were seeded into T-150 flasks at 7,500 cells/cm^2 in complete FGF and cultured for 72 hours. Cells were then washed and starved in serum reduced medium for 24 hours. After starvation, cells were treated with TGFβ1 (R&D Systems) for 72 hours. Cells were harvested using Accutase and seeded in 96-well conical bottom plates. Cells were blocked with Heat Inactived Fetal Bovine Serum (Gibco) for 30 minutes at 4° C. Cells were then incubated with anti-al I antibodies at the doses described in each figure for 30 minutes at 4° C. A human anti-al I antibody (Creative BioLabs) was included as a positive control as well as the appropriate IgG isotype negative controls. Cells were washed twice and incubated with PE conjugated secondary antibodies specific to the IgG class of the anti-α11 antibodies being tested for 30 minutes at 4° C. Cells were washed twice and fixed in 1% PF A for 30 minutes. Cells were acquired on a FACS Verse […]. Data were analyzed by gating on single cells and determining the geometric Mean Fluorescence Intensity (gMFI) in the PE channel for each sample.

cell-mu all = target: T2, cell-mu all (Mus musculus, UniProt P61622); assay: Binding to cells expressing mouse α11
T2 construct: expressed in transfected cells

Row | Molecule | Kd (mouse α11β1; mouse α11β1, method not given, read-out: Cross reacts with mouse α11β1 (affinity)) [nM] | EC50 (CHO-hu α11 [1]; Table 13, 79E3E3 variants) [nM] | Inhibits CHO-α11 mediated collagen gel contraction [2] | inhibition of secreted Col1a1 [3] | inhibition of secreted IL-11 [3] | Cross reacts with mouse α11β1 (mouse α11β1) | IC50 (CHO-hu α11 [4]; Table 12, 16E10 variants, FIG. 5B, read-out: CHO-α11 Adhesion Inhibition IC50) [nM] | EC50 (CHO-hu α11 [1]; Table 11, 1994-01-C7 variants, FIG. 4A) [nM] | EC50 (Pulmonary Myofibroblast) [nM] | IC50 (CHO-hu α11 [4]; Table 11, 1994-01-C7 variants, FIG. 4C, read-out: Inhibition of Cell Adhesion IC50) [nM] | binds cell-mu all (cell-mu all)
1 | B1 | 0.21 | 2.5 | Yes | inhibition | inhibition |  |  |  |  |  | 
2 | B2 |  |  | Yes | inhibition | inhibition | No | 0.4 |  |  |  | 
3 | B3 |  |  | Yes | inhibition | inhibition | No by SPR |  | 3 | 3.6 | 3.4 | binds
